According to the DeepSol protein solubility set:

Test: soluble on expression in E. coli; label from the status in PepcDB or PDB records

Sequence	soluble on expression in E. coli
MSLNLREFKEFIDNEMIVILGQMDSPTQIFEHVFLGSEWNASNLEDLQNRGVRYILNVTREIDNFFPGVFEYHNIRVYDEEATDLLAYWNDTYKFISKAKKHGSKCLVHCKMGVSRSASTVIAYAMKEYGWNLDRAYDYVKERRTVTKPNPSFMRQLEEYQGILLASKEGHHHHHH	not soluble
MGSDKIHHHHHHMMFGKSCQVMVKPTGSVCNLDCKYCFYLEKEKLYPDRKNHYKMSEETLELFIRQQIAAQDIDEVIFAWQGGEPTLMGIPFYRKAVEFQQRYCGGKTIVNTFQTNGILINDDWATFFREHDFLVGVSIDGDAALHDEWRVTRSGKPTHEKVENAVRCLAQHDVEFNTLTVVNRTNMHHPVQVYRYLKSIGSRYMQFIPLVERCGENGLAQPQDKHIAMTPWSVDSLQFGQFLNAVFDIWIREDIGDIGIQLFEQTLAAWCGLPPQVCVFAPTCGSAFAMEMNGDVYNCDHFVYPQFKLGNIHQKTLRQMNQGEQNRQFGSDKQRSMAQECHRCQWKFACYGGCPKHRFLPSASGATNHNYLCAGYQAFFSHTATAMSAMRTLYEKGISPAEIKSIFV	not soluble
MGSDKIHHHHHHMKTRIVQKQFKRKETKYIVDKKTFELLEKELRQYMMADEFATSTITNIYFDNEDFDMIQDSLAKKNGREKIRMRVYDAIPSESSQAFLEIKKKENKIGYKYRLTSNPVSVANYIENGVIDSTIKDDKVNSELEMLRERYGTIKPKMYIYYDRVSYKGIEDKKVRLTIDKNLLYRDYDVDAMEGKFGKNLLDPTKVIMEVKVPEERPDWLVALLEKYQIEKQSFSKYGNAYKLAHNITGEEVSQHAVV	not soluble
MKLIWSPETASKAYIDTVKSCENLGTPGAAELVAAMAAGWNANLIVETWSEGETIAISVGLNIASRHTNGRHICIVPNARSQTAYLQAMAEQSCSNLPETIIMNEEGEELEHTMQTLQGIDFLVVDWDQKDFAANVLRNAVFGSRGAVVVCRSGYRRSTSCFSWTKAFSDRNVVRTVTLPVSGGLEIAHVAAARSSGKSDNNSNKRKWIKHFDQRSGEEHVIRK	soluble
MSETFSGFDTAPVARVQAAFEEIAHRSMHDLSFLHPTMPVHVSDFTLFEGQWTGTVITPWMLSALIFPGPDQIWPRRTVGEKLGLQLPYGTMTFTVGELEGVSQYLACSLMSPLSRSLSPEEGVRLADDCARMLLSLPVSNPDAPQTSRRALLFGRRSCENA	not soluble
MEAPTVLDVGCGDGARTLANLPPRSVGLDFSRAGLDLAAETVPDSRLVQGDMGSLPVTTDSVDAITAYHAVFHVQRDQHPEVYREFARVLRPGGTVLMTLPSGQFETVRRGWMGGSMFFSAPGRRATLDQLADAGFTETETVTATDPLGSDSEFVFATLADALEHHHHHH	not soluble
MSLSDSNDDRPFRPFQSQYRWPGVDLLAYKEEGSAPFRSVTRQVLFSGNGLTGELRYFEVGPGGHSTLERHQHAHGVMILKGRGHAMVGRAVSAVAPYDLVTIPGWSWHQFRAPADEALGFLCMVNAERDKPQLPTEGHHHHHH	not soluble
MSFQLDQSTSVIKTAPPGRLEFKNEPIDIASSNIQDLAKMQTLDGYYQQTSLQLPQSQQYHRMYENVYNNQQILYAQTQNFQYPSTLLTNGSLAQTEWRGQQMDTSAYSNTGYSRSSTSQQPQYTQQVTENERIVYKPVDMPSPVDSGIGGDISILNPKEEFFTSADGGSMLERSSERTLSHRDSPLVIPKLYNNLGFQYVLEAPISTSVRRDDDRMTYVNKGQFYTVSLEYTPDLNKCLKSQTVKSQLMVVFREDKTYEEEIKTWQSWHARQHVSKQRILEIDSKNSSGMIGQIEEIGNNAVQFYWNPSDPSGVRISIAVQCLSTDFSTQKGVKGLPLHVQIDTYDGENDKVPFHRGYCQIKVFCDKGAERKLRDEDKRAQKRKVQEYTAGALPGGRKKSDGEYHDQCERSEFYHMRELDKPAALFIAPEEFEPRYVDSTSLSFDMSEIEPIPTKRPRTSERIMLYVRKRDEQIYQPLHVVPASLSGLALAIANKFGADPDKMSGVYKRCAKGITVKVDDEMLRLYCNEDTFIIDVEHATDGSTAATLIEVAPTNPNSYSNS	not soluble
MTQHTRNFSFKVLTINTHKGFTAFNKRFILPELRDAVRTVGADIVCLQEVMGAHEVHPLHIENWPDTTHYEFLADTMWSDFAYGRNAVYPEGHHGNAVLSRYPIEHYENRDVSVGGSEKRGVLYCRITPPMLNRPIHVMCVHLGLRESHRQAQLTMLAGWVNALPESEPVLVAGDFNDWRQKAGPPLNAAGLEEIFTRAHGRPARTFPVSMPLLRLDRIYVKNANASSPTALPLRNWRHLSDHAPLSAEIHL	not soluble
MPLMPQPTLMPLLQSPSPQHQHQQQQQHRAIGYPQRTLLPQQKQPQQQQPLAYLTSNFNPQQSSVASFNSSPAFTTISDFDQDFDQDYSNCPSLTASPVSTYSLPAYSSTSQQGSSLSAFDSIPNTTTVPRAAQGAAEPLFNLWADPMQTETWLQPADQLTSKSAGRYGHHRESSLSSLGSAGPASPYSNNTSNPQIAVTDFNDFSGFEDLNYHLVPSKASATLHPSFPGYANSNAVPINGYSRAPAVSKQNNNKSFRQEQSVGSNKPRPAPVASSIMSDSSATPAGEAEVAGRQKNGESQENRDLPDRDQSLPFDDVAINNNAPPKFDRTLTDIMNDELYHPDLVITTSAPAPQQTLTTSNNNFNKVVETANQHLSAMQSPASSNSSPFRQGSPHSATLHDFSSLNMASPQVRLGSAQQMRENSKAVQDAAWQQSLARHNQDMTPKTISPKDALLDYHEPEGESNFPLFPQPDNHGFNSDAMSKALSHQSLDGLPNLGDMSTFNFNFSPSNLDSMPTFNGLQQLPQTLQQYSFVNQPRQPSTVPSLATSRMSSAETGITDSPRSNAVQRPVDTRAEGGTYTCTYHGCPLRFDTPQLLQKHKREGHRQAHGLNSRQPNGMTSTRVDTQAGPHRCERINPSTGKPCNQIFSRPYDLTRHEDTIHNARKKKVRCEICTDEKTFSRADALTRHFRVCHPDVPFNGGKQRKARAGRSG	not soluble
MDMAKDKGFFKKAKTGKNKSSATPYAEECAIQIPSEIDNEQMHRMPAGGEEDQYLRIKHMSALIKKYGNLPIITTRETRLPDYWLELFTAIDEGDTPKAHALFHLLPQEDIILRALRAVHSEDYLYQLIKYCIQAKHFGFKQLNADLVVTPKTFEILIKDCATTLFNPAKTHFSFGLPSHHAYTQMGSGFCLINKTAMLIKQAELSSVQPPRFVIIGTDVNRDNGLCDILRHSFSHLSICHIDVFDSRVYPQQDFSYINNEFNSEGVDVGKNIHVWHHNDLSYYAVDLSLTSRKSVGVHPALLFALEQFKASIREAKVKGQKIALYLPTGWDSHEDETAYCGKFVKGRMLGKTAAHQFRFNDGDLSYFYESIFTLYNENKDCIDTIYWGLEGGYDRTMYKRELTLLLQVIEKQLLPQDSNSHNMSCLEHHHHHH	not soluble
MYKGYLIDLDGTMYRGEEQIEEASDFVKALGERGIPYLFVTNNSTRKPEQVAEKLVRFDIPAKAEQVFTTSMATANFIYERKQDATVYMIGEEGLHDALVEKGFELVDENPDFVVVGLDRDITYEKLAKACLAVRNGATFISTNGDIAIPTERGLLPGNGSLTSVVAVSTGVDPIFIGKPESIIMEQALKVLGIEKNEALMVGDNYDTDILAGINAGMHTLLVHTGVTTVEKLTEYEVQPTQVVHNLTEWIEKM	not soluble
MPLEASELKPTAGPLEASELKPTAGPLEASELKPTAGPLEASELKPTAGPLEASELKPTAGPLEASELKPTAGPLEASELKPTAGMPSVQQDITHPKELLISTNWLNRKDVPFMNNQEQQIQNVLNTLRDPDTIRTRSHRILNLAKQNRLEHFSLNPERMTTTASYIVDIITSRYPELDIPYHSRWRHFEMDGLPRIHNLRKQLDPISPSEWGKILYELVIISVFLDAGAGPLWRYKEALTEKEYSRSEGLALASLYLYESGAFSADPTNPFRVDAERLLDFKETDLIKGFQVSSTNLLEGIPGRVSLLNRLGEIIHRKEHCFNRRKRLGEFYTYVESLQDNKILPTTKLFEAVLETFNDIWPVRLIYHGVSLGDVWIHSALKTNEAGSEYIPFHKLSQWLTYSLVEPLEQTGIDIADLDVLTGLPEYRNGGLLIDTELLKVRNNKILEQPQDPGSEPIVEWRALTVALLDELALLIRQQLNMNAESLPLAKILQGGTWEAGRQIAQKKRINGTPPIEIISDGTIFLEHHHHHH	not soluble
MGSDKIHHHHHHMTPQPLADNLSPPDPARLAQSIKDWGRELGFQQVGISDVELGEHEAHLQRWLEAGYHGEMDYMAAHGSKRSRPAELVPGTLRVISLRMDYLPGDTRMAQVLATPEKAYVSRYALGRDYHKLIRKRLQQLAERIQAEVGPFGFRAFVDSAPVLEKAIAEQAGLGWIGKNTLVLNRKAGSYFFLGELFVDMPLPVDPAMDSEHCGRCSACLDICPTAAFVGPYRLDARRCISYLTIEYKGAIPLELRPLIGNRVFGCDDCQIVCPWNRFARPTGQGDFQPRHSLDNAELAELFLWSEEEFLGRTEGSPLRRAGYERWLRNLAVGLGNAPSTIPVLEALKARRGFPSELVREHVEWALRRHGET	not soluble
MFDKHTHTLIAQRLDQAEKQREQIRAISLDYPEITIEDAYAVQREWVRLKIAESRTLKGHKIGLTSKAMQASSQISEPDYGALLDDMFFHDGSDIPTDRFIVPRIEVELAFVLAKPLRGPNCTLFDVYNATDYVIPALELIDARCHNIDPETQRPRKVFDTISDNAANAGVILGGRPIKPDELDLRWISALMYRNGVIEETGVAAGVLNHPANGVAWLANKLAPYDVQLETGQIILGGSFTLPVPARKGDTFHVDYGNMGSISCRFV	not soluble
MSLRKNESIRLIALGGVGEIGKNMYLAEVDEDLYVIDAGLMFPENEMLGIDIVIPDVSYLVQNKDRIRGIFLTHGHEDHIGALSYVLKKVSVPVYGTKLTLALAKAKMKEQDYRGKAELIEINSDSVLEFEHSSVSFFRTNHSIPDSVGICIHTSEGSIVYTGDFKFDQAAPELYKAEIGKMAGIGDNGVLCLLSDSTDAERPGYSTSEAVVQKAMAHAFYSAKGRVIAACFASDLIQIQHIFDAAEESGRKVAVAGKSIQKVYDLAVQLGYLAVKDDILIPLSELGSFRDHEVVILTAGSQGEPIEALQKMAKRTHRQVTIQEGDTVYLAAAPIRGGEVFIYKTMDMLYRAGATVITGKNSATASSHGSQEELKFMINLMKPKHFIPVHGEYKTLKSHGKLAAECGISQDSILIPEKGDVFEIKDGRIKQSGRVPAGNVLIDGIGVGDVGNIVLRDRRLLSQDGILIVVVTLNRHDKQIAAGPEIISRGFVYVRESEKLLVQAADMVKEIVHRGSQKESFDWAAVKQDMRDELNQFFYEKTKRRPMILPIIMEVKQEGHHHHHH	soluble
HKRPVPAKRYDNVTILFSGIVGFNAFCSKHASGEGAMKIVNLLNDLYTRFDTLTDSRKNPFVYKVETVGDKYMTVSGLPEPCIHHARSICHLALDMMEIAGQVQVDGESVQITIGIHTGEVVTGVIGQRMPRYCLFGNTVNLTSRTETTGEKGKINVSEYTYRCLMSPENSDPQFHLEHRGPVSMKGKKEPMQVWFLSRKNTGTEETKQDDDAENLYFQ	soluble
MAHHHHHHMCVKCLFLARSEMAIEESACNDDSQAVTEATSERTVNSATVFRYPFNTMDLGWLVGYIDAFLVKSERWAAAMRLTTCFMTFTVLHEDPLMEDATFQLHKTMLDRSIKKSWPRRNRDLSNTFDAAYHVFETICIVSKYPNLDPAGKAGILRMSEKLIQGMEKPMDNVVIKIDLKKKSETLHATLARLQALGRAPESLSAFDALMASLKMVFFCYVASLGINNMMLDANLNKMDSYVCCEGCPCHAKLRTTYTLFIRDVEKTKVIDCLLIMAVKEDDAFLSKLAEGLFTQFDCRSPFLEKPVRRIQNGALFMVRIALFDAFRHVKALLVDLRASPASLAPQIDNVVLALYIARREMRGMKGLNEHLPLVNKALATADSIYSRLGTENASQELRTLKDYITKIFFLVSAPEFHLAVHSKDPLVGKGAKLCCGNPDCPGKVKEMLKCSGCRVTFYCSVTCQRDDWKTHRFLCKEMGCRKAAPAPIKMAECSTETLKPAAFHG	not soluble
